# From patent US20030203841A1 (US Dept. of Health and Human Services, published 2003)
# Where no end group is shown, it is not given here. The star is where a group is joined. For = O=C*
# T1: FPR-like receptor 1 (FPRL1) on transfected human embryonic kidney 293 cells (FPRL1/293 cells) (human, UniProt P25090 1-351)
# T1 sequence: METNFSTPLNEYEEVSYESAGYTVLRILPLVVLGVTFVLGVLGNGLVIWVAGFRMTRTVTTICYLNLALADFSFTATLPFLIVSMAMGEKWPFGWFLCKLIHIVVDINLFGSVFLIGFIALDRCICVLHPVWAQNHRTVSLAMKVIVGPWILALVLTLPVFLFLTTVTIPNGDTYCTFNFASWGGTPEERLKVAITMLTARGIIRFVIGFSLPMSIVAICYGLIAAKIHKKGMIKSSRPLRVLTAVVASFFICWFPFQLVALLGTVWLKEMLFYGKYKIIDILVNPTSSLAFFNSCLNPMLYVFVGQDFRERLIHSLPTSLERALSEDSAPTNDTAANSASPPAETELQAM
# T2: epitope tagged N-formyl peptide receptor (FPR) on ETFR cells (stably transfected rat basophilic leukemia … (human, UniProt P21462 1-350))
# T2 sequence: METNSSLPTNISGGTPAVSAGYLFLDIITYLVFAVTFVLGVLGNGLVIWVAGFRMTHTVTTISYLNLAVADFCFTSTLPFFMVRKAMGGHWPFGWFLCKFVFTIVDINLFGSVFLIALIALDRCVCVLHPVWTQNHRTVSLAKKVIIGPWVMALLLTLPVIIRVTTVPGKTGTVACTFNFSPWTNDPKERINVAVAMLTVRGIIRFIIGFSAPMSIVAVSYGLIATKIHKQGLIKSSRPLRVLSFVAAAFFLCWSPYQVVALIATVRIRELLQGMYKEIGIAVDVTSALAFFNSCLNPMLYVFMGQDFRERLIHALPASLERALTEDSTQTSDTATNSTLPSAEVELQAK
# Key:
# [1] = molecular target: epitope tagged N-formyl peptide receptor (FPR) on ETFR cells (stably transfected rat basophilic leukemia cells) (human) (UniProt P21462); assay: competition of unlabeled fMLP with ^3H-fMLP for binding to FPR expressing ETFR cells, filtration, 20 min at 37 C
# [2] = molecular target: epitope tagged N-formyl peptide receptor (FPR) on ETFR cells (stably transfected rat basophilic leukemia cells) (human) (UniProt P21462); assay: cell-based or functional assay
# [3] = molecular target: T1, FPR-like receptor 1 (FPRL1) on …; assay: cell-based or functional assay
# [4] = molecular target: T2, epitope tagged N-formyl peptide …; assay: cell-based or functional assay
Molecule,IC50 [1] [nM],EC50 of migration of ETFR cells (chemotaxis) [2] [nM],concentration required to induce a change in the ratio of 2 at 340/380 nm fluorescence (Ca^++) in FPR expressing cells [2],concentration required to induce a change in the ratio of 0.6 at 340/380 nm fluorescence (Ca^++) in FPRL1/293 cells [3],excess of fMLP needed to desensitize the Ca^++ flux induced by T21/DP107 in FPRL1/293 cells [3] [fold],concentration required to induce a change in the ratio of 2 at 340/380 nm fluorescence (Ca^++) in FPR expressing cells [4],EC50 of migration of FPRL1/293 cells (chemotaxis) [3] [nM]
N-formyl-methionyl-leucyl-phenylalanine (fMLP) (peptide),1,0.5,1e-10,,,,
For-Met-Leu-Phe (also: tritiated (3H) form used as tracer) [N-formyl-methionyl-leucyl-phenylalanine (fMLP)],,,,5e-05,1000,,
"NNLLRAIEAQQHLLQLTVWGIKQLQARILAVERYLKDQ (also: some embodiments acylated, form not given here) [T21/DP107]",,,,5e-07,,1e-05,50
